Assay results taken from patent US20100322948A1, “Bone morphogenetic protein (BMP)-binding domains of proteins of the repulsive guidance molecule (RGM) protein family and functional fragments thereof, and use of same” (ABBOTT GMBH & CO. KG, priority 2007, published 2010).
Entries after “also recorded” stand apart in the source; their conditions may differ.

Columns and labels:
[1] = biological target: T1, BMP-2 (Homo sapiens, UniProt P12643); assay: In vitro interaction test, variant B: immobilized RGMA-Fc fusion proteins, detection of BMP-2 binding; details: Working Example 2, FIG. 4, anti-BMP-2 biotin antibodies
T1 construct: purchased R&D Systems 355-BM; host or cells: CHO cells (said of #355-BM in the BRE-Luc section)
T1 sequence (P12643 283-396): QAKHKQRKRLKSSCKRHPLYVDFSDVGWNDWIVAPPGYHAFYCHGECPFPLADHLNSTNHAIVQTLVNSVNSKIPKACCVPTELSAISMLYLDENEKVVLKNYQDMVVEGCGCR
Protocol: Test Method 4: In Vitro Interaction Test for Determining the Interaction between RGMA and BMP-2 and -4
The interaction tests were carried out as described below:
Variant B: Immobilization of Various RGMA-Fc Fusion Proteins and Detection of the Binding of the BMP-2/ or -4 Protein
Immunoplate Cert. MaxiSorp F96 (Nunc, 439454)
RGMA-Fc fragments • Volume used: 2.5 μg/mL in Na2CO3; addition: 50 μL per well • 1 hour at 37° C. in damp chamber
3. Washing step: • Wash 3× with PBS/0.02% Tween 20
4. Blocking: • 3% BSA in PBS/0.02% Tween, 1 hour at 37° C. in damp chamber • Addition : 200 μL per well, incubation: 1 hour at 37° C. in damp chamber
Recombinant human BMP-2, Catalog No.: 355-BM, Company: R&D Systems; or
Recombinant human RGM A, R&D Systems; Prod. #2495-RM,
recombinant human BMP-4, Catalog No.: 314-BM, Company: R&D Systems;
Concentration in each case: 10 μg/mL
Dilution steps: in each case 1:2 with PBS/0.02% Tween 20
6. Washing step: • Wash 3× with PBS/0.02% Tween 20
Anti-human BMP-4 biotin antibody; Catalog No.: BAM7572, 1:200 in 1% BSA-PBS-T
8. Washing step: • Wash 3× with PBS/0.02% Tween 20
10. Washing step: • Wash 3× with PBS/0.02% Tween 20 […]
The test was conducted according to test method 4, variant B above, with immobilization of the fusion proteins (1 mg/mL). The binding of BMP-4 and -2 was detected using anti-BMP-4 and anti-BMP-2 biotin antibodies, respectively.

[2] = tested on: SH-SY5Y cells; assay: Neurite growth assay using SH-SY5Y cells (test method 1); format: cell-based, human; details: FIG. 7A
Source text: Test Method 1: Illustration of the Effect of RGM Peptides in the Neurite Growth Assay, Using SH-SY5Y Cells
SH-SY5Y cells are human neuroblastoma cells. Blastomas are embryonic tumors which originate during tissue and organ formation. The origin of the blastoma cells is frequently unknown, since in early embryonic states the differentiation of many cells is still premature; i.e., the blastoma cells are a heterogeneous cell population. The cells of a neuroblastoma, referred to as neuroblasts, originate from the neural crest (structure of the embryonic state) from the autonomous nerve tissue, and are practically arrested in an immature stage. The cells in the present case originated from a clonal subculture of the neuroepitheliomal cell line SK-N-SH which were isolated in 1970 in a bone marrow biopsy of a child with metastases of the neuroblastomas.
Culture Medium for SH-SY5Y Cells (ECACC No. 94030304)
The medium was sterile-filtered using a Nunc 500-mL filter, and was stored in a refrigerator at 4° C. until used. Before use, the medium was heated to 37° C. in a water bath.
SH-SY5Y cells are epithelial, neuron-like cells which slowly adherently grow in a monolayer and never attain a confluence of 100% (maximum 80%). The cell culture was split 1:3 two times per week. Isolation of the cells requires incubation with trypsin for 1-3 minutes in an incubator.
Since this is a population of still immature precursor cells, it is possible to differentiate the cells using retinoic acid, so that a certain percentage of the cells acquire neurite-like extensions. For this purpose the culture was incubated in the medium with 10 μM retinoic acid directly in the culture dish or flask, depending on the test, for 3 days.
Microtiter plates (96-well) (containing collagen I-coated plates) were additionally coated with the hRGM A fragments. After washing two times with PBS the cells were seeded. […] In the quantitative analysis the SH-SY5Y cells grown on hRGM A fragments were compared to SH-SY5Y grown on collagen I alone. The neurite length of the cells was automatically measured and used for the analysis. […]

B1: fragment #786: Fc fusion protein of human RGM A amino acids 47-168 (protein)
chain: PCKILKCNSEFWSATSGSHAPASDDTPEFCAALRSYALCTRRTARTCRGDLAYHSAVHGIEDLMSQHNCSKDGPTSQPRLRTLPPAGDSQERSDSPEICHYEKSFHKHSATPNYTHCGLFGD
modifications: left off: small tags and cut ends; a dimerising Fc or GST
[1]
  binding of BMP-2: more significant binding
[2]
  inhibition of neurite growth: inhibit the neurite growth
[2]; listed as 47-168-Fc
  inhibitory activity in neurite growth test compared with 316-386-Fc: much stronger effect; also recorded: significantly higher activity
